According to PMC8537277 (Pharmaceuticals, 2021):

Experiments:
[1] = target: H1N1 hemagglutinin (Cat No.: Z03181, GenScript), full-length recombinant HA (His-Tag) (influenza A virus H1N1 (strain not stated)); experiment: MST; fluorescently labelled His-HA (NT647-HA) held constant, peptide in 16 1:1 serial dilutions from 50 µM; assay buffer PBS; 10 min incubation at rt; standard-treated capillaries; high MST power, 10% LED power; Monolith NT.115pico; triplicate
[2] = target: H1N1 hemagglutinin (Cat No.: Z03181, GenScript), full-length recombinant HA (His-Tag) (influenza A virus H1N1 (strain not stated)); experiment: SPR
[3] = target: H1N1 hemagglutinin (Cat No.: Z03181, GenScript), full-length recombinant HA (His-Tag) (influenza A virus H1N1 (strain not stated)); experiment: SPR; remark: listed apart in the source

B1: peptide 8 (Ac-SADC-NH2) (peptide)
peptide: Ac-SADC-NH2
[1]
  Kd: 6380 nM
[2]
  Kd: 2190 nM

B2: peptide 5 (Ac-SKAS-NH2) (peptide)
peptide: Ac-SKAS-NH2
[1]
  Kd: 7010 nM
[2]
  Kd: 1030 nM

B3: peptide 6 (Ac-SKHA-NH2) (peptide)
peptide: Ac-SKHA-NH2
[1]
  Kd: 11400 nM
[2]
  Kd: 6750 nM

B4: peptide 7 (Ac-ALDC-NH2) (peptide)
peptide: Ac-ALDC-NH2
[1]
  Kd: 21200 nM
[2]
  Kd: 27.7 nM

B5: peptide 10 (Ac-SLDA-NH2) (peptide)
peptide: Ac-SLDA-NH2
[1]
  Kd: 2690 nM
[2]
  Kd: 343 nM

B6: peptide 3 (Ac-AKHS-NH2) (peptide)
peptide: Ac-AKHS-NH2
[1]
  Kd: 3120 nM
[2]
  Kd: 2700 nM

B7: peptide 9 (Ac-SLAC-NH2) (peptide)
peptide: Ac-SLAC-NH2
[1]
  Kd: 5.8 nM
[2]
  Kd: 2570 nM

B8: peptide 4 (Ac-SAHS-NH2) (peptide)
peptide: Ac-SAHS-NH2
[1]
  Kd: 8.2 nM
[3]
  Kd: 3.57 nM
[2]
  Kd: 3.5 nM
